According to US20240383990A1 (DIAGONAL THERAPEUTICS, published 2024):
Blank lines part the entries; values can stand above or below the binder they belong to.

Tests used:
[1] = biological target: T1, IL-18 receptor (IL-18Rα and IL-18Rβ) on HEK-Blue IL-18 cells (UniProt Q13478 19-541; O95256 20-599, limits assumed); test: cell-based or functional assay
T1 sequence (looked up) 1: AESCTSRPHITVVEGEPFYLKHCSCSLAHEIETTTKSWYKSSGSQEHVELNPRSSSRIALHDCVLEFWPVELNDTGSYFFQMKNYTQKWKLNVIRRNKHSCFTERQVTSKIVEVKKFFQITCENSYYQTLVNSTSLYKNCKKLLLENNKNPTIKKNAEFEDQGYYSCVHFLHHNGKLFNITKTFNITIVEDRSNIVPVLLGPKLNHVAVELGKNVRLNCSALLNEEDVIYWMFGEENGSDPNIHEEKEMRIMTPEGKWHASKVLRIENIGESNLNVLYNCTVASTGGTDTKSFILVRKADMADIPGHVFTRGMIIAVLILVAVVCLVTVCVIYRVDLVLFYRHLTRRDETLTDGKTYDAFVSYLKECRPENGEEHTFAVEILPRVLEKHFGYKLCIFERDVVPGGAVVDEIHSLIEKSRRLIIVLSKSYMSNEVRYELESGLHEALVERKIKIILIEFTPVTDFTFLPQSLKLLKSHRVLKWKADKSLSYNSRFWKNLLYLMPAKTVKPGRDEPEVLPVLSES
T1 sequence (looked up) 2: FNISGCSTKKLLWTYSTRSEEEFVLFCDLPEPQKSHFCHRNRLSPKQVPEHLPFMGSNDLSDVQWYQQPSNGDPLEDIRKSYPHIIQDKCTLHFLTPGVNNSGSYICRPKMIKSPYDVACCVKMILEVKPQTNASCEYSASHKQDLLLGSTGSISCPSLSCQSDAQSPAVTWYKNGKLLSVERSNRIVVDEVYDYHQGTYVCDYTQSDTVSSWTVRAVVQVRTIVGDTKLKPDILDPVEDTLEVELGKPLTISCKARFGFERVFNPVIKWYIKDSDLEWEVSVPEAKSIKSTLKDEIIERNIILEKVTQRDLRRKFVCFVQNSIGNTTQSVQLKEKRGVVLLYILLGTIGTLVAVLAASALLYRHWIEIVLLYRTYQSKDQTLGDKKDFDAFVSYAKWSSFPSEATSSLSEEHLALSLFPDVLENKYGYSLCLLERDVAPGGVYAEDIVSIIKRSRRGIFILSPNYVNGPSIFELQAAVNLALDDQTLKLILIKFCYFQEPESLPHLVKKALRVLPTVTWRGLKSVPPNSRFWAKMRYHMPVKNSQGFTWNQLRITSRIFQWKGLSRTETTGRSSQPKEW

[2] = biological target: T1, IL-18 receptor (IL-18Rα and IL-18Rβ) on …; test: cell-based or functional assay; remark: listed apart in the source

HEK-Blue assay, % hu-IL-18 [1]: 89 % of human IL18 activity
HEK-Blue assay, % human IL-18 [2]: 65 % of human IL18 activity
B1: DGL209 (bispecific antibody)
chain 1: QVQLVESGGGLVQAGGSLRLSCAASGRTFSKHAMGWFRQAPGKEREFVAAIDWSGGSTYYADSVKGRFTISRDNAKNTVYLQMDSLKPEDTAVYYCAADSYTDYAQLWLPELESEYDYWGQGTLVTVSSPLAPCPPCPAPEAAGAPSVFLFPPKPKDTLMISRTPEVTCVVVDVSHEDPEVKFNWYVDGVEVHNAKTKPREEQYNSTYRVVSVLTVLHQDWLNGKEYKCKVSNKALPAPIEKTISKAKGQPREPQVCTLPPSRDELTKNQVSLSCAVKGFYPSDIAVEWESNGQPENNYKTTPPVLDSDGSFFLVSKLTVDKSRWQQGNVFSCSVMHEALHNHYTQKSLSLSPGWSHPQFEK
chain 2: QLQLVESGGGLVQAGGSLRLSCAASRSITFSHNVMGWYRQAPGKQRELVASIGSGGSTNYVDSVKGRATISRDNAKKTVYLQMNSLKPEDTAVYYCGVVVGVYRGSLGQGTLVTVSSPLAPCPPCPAPEAAGAPSVFLFPPKPKDTLMISRTPEVTCVVVDVSHEDPEVKFNWYVDGVEVHNAKTKPREEQYNSTYRVVSVLTVLHQDWLNGKEYKCKVSNKALPAPIEKTISKAKGQPREPQVYTLPPCRDELTKNQVSLWCLVKGFYPSDIAVEWESNGQPENNYKTTPPVLDSDGSFFLYSKLTVDKSRWQQGNVFSCSVMHEALHNHYTQKSLSLSPGEPEA

HEK-Blue assay, % hu-IL-18 [1]: 98 % of human IL18 activity
HEK-Blue assay, % human IL-18 [2]: 85 % of human IL18 activity
B2: DGL207 (bispecific antibody)
chain 1: QVQLVESGGGLVQAGGSLRLSCAASGRTFSKHAMGWFRQAPGKEREFVAAIDWSGGSTYYADSVKGRFTISRDNAKNTVYLQMDSLKPEDTAVYYCAADSYTDYAQLWLPELESEYDYWGQGTLVTVSSCPPCPAPEAAGAPSVFLFPPKPKDTLMISRTPEVTCVVVDVSHEDPEVKFNWYVDGVEVHNAKTKPREEQYNSTYRVVSVLTVLHQDWLNGKEYKCKVSNKALPAPIEKTISKAKGQPREPQVCTLPPSRDELTKNQVSLSCAVKGFYPSDIAVEWESNGQPENNYKTTPPVLDSDGSFFLVSKLTVDKSRWQQGNVFSCSVMHEALHNHYTQKSLSLSPGWSHPQFEK
chain 2: QLQLVESGGGLVQAGGSLRLSCAASRSITFSHNVMGWYRQAPGKQRELVASIGSGGSTNYVDSVKGRATISRDNAKKTVYLQMNSLKPEDTAVYYCGVVVGVYRGSLGQGTLVTVSSCPPCPAPEAAGAPSVFLFPPKPKDTLMISRTPEVTCVVVDVSHEDPEVKFNWYVDGVEVHNAKTKPREEQYNSTYRVVSVLTVLHQDWLNGKEYKCKVSNKALPAPIEKTISKAKGQPREPQVYTLPPCRDELTKNQVSLWCLVKGFYPSDIAVEWESNGQPENNYKTTPPVLDSDGSFFLYSKLTVDKSRWQQGNVFSCSVMHEALHNHYTQKSLSLSPGEPEA
